Test results taken from patent publication US20210161943A1, “PAK4 INHIBITORS AND METHODS OF USE” (THE REGENTS OF THE UNIVERSITY OF CALIFORNIA, priority 2018, published 2021).

B1: Wnt-3a: Wnt-3a (R&D Systems), used at 200 ng/mL (protein, UniProt P56704 19-352, looked up)
Protein Wnt-3a: SYPIWWSLAVGPQYSSLGSQPILCASIPGLVPKQLRFCRNYVEIMPSVAEGIKIGIQECQHQFRGRRWNCTTVHDSLAIFGPVLDKATRESAFVHAIASAGVAFAVTRSCAEGTAAICGCSSRHQGSPGKGWKWGGCSEDIEFGGMVSREFADARENRPDARSAMNRHNNEAGRQAIASHMHLKCKCHGLSGSCEVKTCWWSQPDFRAIGDFLKDKYDSASEMVVEKHRESRGWVETLRPRYTYFKVPTERDLVYYEASPNFCEPNPETGSFGTRDRTCNVSSHGIDGCDLLCCGRGHNARAERRREKCRCVFHWCCYVSCQECTRVYDVHTCK

Experiments:
MC38 WT tumors = test: Tumor growth of MC38 WT colon adenocarcinoma tumors in C57BL/6 mice; assay type: in vivo; conditions: for tumor growth versus anti-PD-1 monotherapy: MC38 WT tumors, PAK4 inhibitor twice daily from days 4 to 7, P<0.05 days 7, 10 (day 14 only combination)
Method: All mouse studies were performed under UCLA Animal Research Committee protocol #2004-159-23. C57BL/6 mice were bred and kept under defined-flora pathogen-free conditions at the Association for Assessment and Accreditation of Laboratory Animal Care approved animal facility of the Division of Experimental Radiation Oncology, UCLA. To study the in vivo effect of PD-1 blockade in anti-tumor response and immune cell infiltration, we subcutaneously (s.c.) injected 0.3×10^6 B16 PAK4 KO melanoma cells or MC38 PAK4 KO cells into the flanks of C57BL/6 syngeneic mice. 96 hours after tumor injection mice were randomly assigned into the different groups. Anti PD-1 (Cat. No. BE0146, clone RMP1-14, BioXCell, West Lebanon, N.H.) treatment was injected intraperitoneally three times per week at 200 μg per dose. For CD8 depletion studies, we administered anti-CD8 (Cat. No. BE0117, clone YST 169.4, BioXCell) one day before anti-PD1 treatment and then it was co-administered with anti-PD1 for a total of four doses. Splenocytes from control and CD8 depleted mice were taken to validate CD8 depletion efficacy (FIGS. 14-15). To study the combination effects of PAK4 inhibition (KPT-9274) and anti-PD-1 (Cat. No. BE0146, clone RMP1-14, BioXCell) in immune cell infiltration and anti-tumor response, 0.5×10^6 B16 WT or MC38 WT cells were injected s.c. into the flanks of C57BL/6 mice. 96 hours after tumor injection mice were randomly assigned into the different groups. PAK4 inhibitor was administered twice a day by oral gavage at 150 mg/kg while anti-PD-1 treatment was administered as described above. Tumor progression was monitored three times per week by measuring two perpendicular dimensions with a calliper.

[1] = tested on: Wnt/β-catenin-mediated transcription in PAK4 KO cells; test: Topflash/Fopflash WNT activity luciferase assay, B16 PAK4 KO cells; assay type: cell-based, murine; conditions: Wnt-3a 200 ng/mL, 8 hours
Method: (§1) For Topflash WNT activity assay cells were plated in 24 well plates and were co-transfected with pSV-β-galactosidase control vector (PR-E1081, Promega, Madison, Wis.) along with either pTopflash (Addgene, Cat. No. 12456) or pFopflash (Addgene, Cat. No. 12457). 24 hours after transfection, cells were treated with Wnt-3a (R&D Systems, Minneapolins, Minn.) at 200 ng/mL. After 8 hours, cells were harvested using Reporter Lysis Buffer (Promega, Cat. No. PR-E4030) and luciferase activity was measured using Bright-Glo Luciferase Assay System (Promega, Cat. No. PR-E2610) and Beta-Glo Assay System (Promega, Cat. No. PR-E4720). Luciferase activity was normalized to its corresponding Beta-Glo activity to account for transfection efficiency.

[2] = tested on: Wnt/β-catenin-mediated transcription in B16 WT CRISPR control cells; test: Topflash/Fopflash WNT activity luciferase assay, B16 WT CRISPR control cells; assay type: cell-based, murine; conditions: Wnt-3a 200 ng/mL, 8 hours
Method: as §1

| Molecule | tumor growth versus anti-PD-1 monotherapy (MC38 WT tumors; listed as PAK4i) | tumor growth versus anti-PD-1 monotherapy (MC38 WT tumors; listed as PAK4 inhibitor) | PAK4 inhibitor associated toxicity (MC38 WT tumors; mice bearing MC38 WT tumors, PAK4 inhibitor 150 mg/kg twice daily oral gavage, days 4 to 7) | induction of Topflash luciferase activity ([1]; PAK4 KO cells versus B16 WT control) | Fopflash luciferase activity (mutant TCF-binding sites) ([1]; PAK4 KO cells) | Topflash luciferase activity ([2]; B16 WT CRISPR control cells) | Fopflash luciferase activity (mutant TCF-binding sites) ([2]; B16 WT cells) |
| --- | --- | --- | --- | --- | --- | --- | --- |
| Nc1ccc(/C=C/C(=O)NCc2cc3cc(-c4ccc(C(=O)N5CCC(F)(F)CC5)cc4)cc(-c4ccc(F)cc4)c3o2)cn1 [KPT-9274] | significant decreased tumor growth compared to anti-PD-1 alone | decreased tumor growth compared to the anti-PD-1 monotherapy group | discontinued due to PAK4i associated toxicity | – | – | – | – |
| B1 | – | – | – | significantly reduced | did not induce | significantly induced | did not induce |
